The subject of assay [1] is anaplastic thyroid cancer cell line FRO. Briefly: thyroid cancer mouse model, combination with lenvatinib. The class given is in vivo, nu/nu mice. The source says: We measured tumor size with a caliper and calculated tumor volume using the following equation: volume=½× a×b2, where a=long tumor diameter and b=short tumor diameter.
Assay [2] concerns 4T1, a breast cancer cell line. Particulars: 4T1 in C3H mice; FIG. 7.
Procedure: 2×10^6 pieces of 4T1, a breast cancer cell line, were injected into the back of C3H mice, and anticancer drugs were administered to each experimental group from the 5th day when the tumor was formed.
Assay [3] deals with T1, Recombinant mouse CXCL16 antigen (mouse, UniProt Q8BSU2 27-114, limits assumed).
T1 construct: Bought recombinant protein (503-CX, R&D systems); also called 503-CX (R&D systems)
T1 sequence: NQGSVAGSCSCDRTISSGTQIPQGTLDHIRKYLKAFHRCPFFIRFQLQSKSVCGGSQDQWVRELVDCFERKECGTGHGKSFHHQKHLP
The assay is described as follows: ELISA, recombinant mouse CXCL16 immobilized on the plate, HRP-labeled anti-human IgG detection, OD 450 nm. On the procedure: To evaluate the cross-reactivity with mouse CXCL16 antigen, the same ELISA experiment was performed with recombinant mouse CXCL16 antigen (503-CX, R&D systems). The mouse CXCL16 antigen was immobilized onto 96-well plates by incubation for 2 hours at room temperature. Non-specific binding sites were blocked by incubating with 1% BSA in PBS overnight at 4° C. After coating, the plates were washed with PBS. Humanized CXCL16 antibodies at various concentration (0.00 1˜10 nM) were incubated with the immobilized antigen for 2 hours at room temperature. After binding, the plates were washed, incubated with HRP-labeled anti-human IgG antibody (W4031, Promega, USA) for 0.5 hours, and developed using the substrate solution (DY008B, R&D systems). The binding affinity of humanized antibodies was similar to that of IgG antibody.
(An ELISA detects its analyte on a solid surface through an enzyme-linked reagent.)

For assay [4], the target named is T2, Recombinant human CXCL16 (rhCXCL16) protein (human, UniProt Q9H2A7 30-118, limits assumed).
T2 construct: Bought recombinant protein (976-CX, R&D systems); also called CXCL16 antigen; 976-CX (R&D systems)
T2 sequence: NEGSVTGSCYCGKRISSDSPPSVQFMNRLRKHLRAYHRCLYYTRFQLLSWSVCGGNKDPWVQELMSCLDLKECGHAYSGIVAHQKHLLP
The assay is described as follows: BLI (ForteBio), antibody captured on biosensor, rhCXCL16 in solution, 25 C. The protocol:
(§1) The binding characteristics of 25 CXCL16 antibodies were analyzed using the bio-light interferometry (ForteBio). All antibodies were diluted in freshly prepared running buffer. Antibodies were immobilized onto the surface of a series of biosensors using the capture methods at 0.3 μg/mL. Recombinant human CXCL16 (rhCXCL16) protein (100 nM) was passed over the surface to generate a binding response for 10 minutes. Binding data for the antibody and antigen interactions were collected at 25° C. on the biosensors. Then, the running buffer was passed for 10 minutes to dissociate them. The association constant (kₐ) and the dissociation constant (kₐ) were observed, and the equilibrium binding constant (KD) was calculated. […] R2: The value indicating how well the fit and experimental data correlate; X²: The measure of error between the experimental data and fitted line.
A general note: BLI is a label-free optical method that tracks binding on a fibre tip over time.

For assay [5], the target named is T2, Recombinant human CXCL16 (rhCXCL16) …. Described as above. The source holds these as a separate data set.
Assay [6] has the same target. The assay is described as follows: BLI (ForteBio), antibody captured on biosensor, rhCXCL16 in solution. On the procedure:
as §1

Positions count from the first letter of the chain named. Where only a bound is given, the exact number is not on record here.

Take `COc1cc2nccc(Oc3ccc(NC(=O)NC4CC4)c(Cl)c3)c2cc1C(N)=O` [lenvatinib]: the “therapeutic effect (tumor growth)” value in assay [1] (after phase 1, rate the same as that of the control group) was “therapeutic effect of lenvatinib was lowered”; in assay [1] (phase 1 (up to day 22), lenvatinib orally 30 mg/kg/day five times a week), “therapeutic effect of lenvatinib was maintained”.
In the case of `CC(=O)O[C@H]1C(=O)[C@@]2(C)[C@H]([C@H](OC(=O)c3ccccc3)[C@]3(O)C[C@H](OC(=O)[C@H](O)[C@@H](NC(=O)c4ccccc4)c4ccccc4)C(C)=C1C3(C)C)[C@]1(OC(C)=O)CO[C@@H]1C[C@@H]2O` [Taxol, paclitaxel], in assay [2], the “therapeutic effect (tumor growth)” value was “did not have a clear therapeutic effect”.

B1: Chimeric antibody HC0LC0 (antibody, V domains shown)
VH: AVQLVESGGGLVQPKESLKISCAASGFTFSNAVMNWVRQAPGKGLEWVARIRTKPNNYATFYADSVKGRFTFSRDDSKSMVYLQMDNLKTEDTAMYYCTAWTTEGIYWGQGTLVTVSS
VL: DIVMTQSPSSLAVSAGETVTINCKSSQSLLYSGNQKNYLAWYQQKPGQSPKLLIYWASTRQSGVPDRFIGSGSGTDFTLTISSVQAEDLAIYYCQQYYDTPWTFGGGTKLELKR
notes: also called CLS-A1HC0LC0; variant antibody
Regarding B1, in assay [3], the binding result was “no binding (tested: 1500 ng/mL)”. Besides, in assay [4], the Kd was below 0.001 nM and the koff is below 1e-07 s⁻¹. The “Res@3.7 nM” value in assay [5] was found to be 0.13.

B2: HC1LC2 (antibody, human IgG1, kappa, V domains shown)
VH: QVQLVESGGGVVQPGGSLRLSCAASGFTFSNAVMNWVRQAPGKGLEWVARIRTKPNNYATFYADSVKGRFTFSRDNSKTMLYLQMNSLRAEDTAVYYCTAWTTEGIYWGQGTLVTVSS
VL: B1 VL with A15L, V19A, S49P, I69T, S73A, L110V, L112I
notes: Humanized variant; human IgG1 / kappa constant domains
Consider B2, for which the binding result in assay [6] was “no binding (tested: 100 nM rhCXCL16)”.

B3: HC5LC5 (antibody, human IgG1, kappa, V domains shown)
VH: B1 VH with A1E, K15G, E16G, I20L, P41S, S79N, M80T, V81A, D86N, N87S
VL: B1 VL with T18R, V19A, V84L, L89V
notes: Humanized; human IgG1 / kappa constant domains; also called HCSLCS; humanized CXCL16 antibody HC5LC5
As to B3, the binding result in assay [3] is reported as “no binding (tested: 1500 ng/mL)”. Further, in assay [4], the Kd was below 0.001 nM, the koff is below 1e-07 s⁻¹ and the kon stood at 18200 M⁻¹ s⁻¹. Moreover, in assay [5], the “Res@3.7 nM” value was found to be 0.231.

B4: HC2LC3 (antibody, human IgG1, kappa, V domains shown)
VH: B1 VH with K15G, E16G, P41S, A49G, F72I, S79N, M80T, V81A, D86N, N87S
VL: DIQMTQSPSSLSASVGDRVTITCKSSQSLLYSGNQKNYLAWYQQKPGQSPKLLIYWASTRQSGVPDRFSGSGSGTDFTLTISSLQAEDFATYYCQQYYDTPWTFGGGTKVEIKR
notes: as for B2
With B4, the binding result in assay [6] is on record as “no binding (tested: 100 nM rhCXCL16)”.

B5: HC5LC1 (antibody, human IgG1, kappa, V domains shown)
VH: B1 VH with A1E, K15G, E16G, I20L, P41S, S79N, M80T, V81A, D86N, N87S
VL: B1 VL with S9D, I69S, L89V, I91V, L110V, L112I
notes: Humanized; human IgG1 / kappa constant domains; also called HCSLC1; humanized CXCL16 antibody HC5LC1
As for B5, in assay [4], the equilibrium dissociation constant (Kd) was found to be 3.26 nM, the dissociation rate constant (koff) was 5.97e-05 s⁻¹ and the association rate constant (kon) worked out at 18300 M⁻¹ s⁻¹. For the same molecule, the “Res@3.7 nM” value in assay [5] was 0.08.

B6: HC2LC4 (antibody, human IgG1, kappa, V domains shown)
VH: B1 VH with K15G, E16G, P41S, A49G, F72I, S79N, M80T, V81A, D86N, N87S
VL: B4 VL with D66S, A86P, F89L, T91I, V110L, I112L
notes: as for B2
On to B6, for which the binding result in assay [6] is on record as “no binding (tested: 100 nM rhCXCL16)”.

B7: HC2LC2 (antibody, human IgG1, kappa, V domains shown)
VH: B1 VH with K15G, E16G, P41S, A49G, F72I, S79N, M80T, V81A, D86N, N87S
VL: B1 VL with A15L, V19A, S49P, I69T, S73A, L110V, L112I
notes: as for B2
As for B7, the binding result in assay [6] is “no binding (tested: 100 nM rhCXCL16)”.

B8: HC4LC2 (antibody, human IgG1, kappa, V domains shown)
VH: B2 VH with Q1E, V11L, Q13K, N76D, T79N, M80T, R89K, A90T, L113T
VL: B1 VL with A15L, V19A, S49P, I69T, S73A, L110V, L112I
notes: as for B2
As to B8, the binding result in assay [6] was “no binding (tested: 100 nM rhCXCL16)”.

B9: HC5LC3 (antibody, human IgG1, kappa, V domains shown)
VH: B1 VH with A1E, K15G, E16G, I20L, P41S, S79N, M80T, V81A, D86N, N87S
VL: B4 VL
notes: Humanized; human IgG1 / kappa constant domains; also called HCSLC3; humanized CXCL16 antibody HC5LC3
Consider B9, for which, in assay [4], the dissociation constant (Kd) amounted to 1.44 nM and the koff was 0.000635 s⁻¹. The “Res@3.7 nM” value in assay [5] amounted to 0.078.

B10: HC5LC2 (antibody, human IgG1, kappa, V domains shown)
VH: B1 VH with A1E, K15G, E16G, I20L, P41S, S79N, M80T, V81A, D86N, N87S
VL: B1 VL with A15L, V19A, S49P, I69T, S73A, L110V, L112I
notes: Humanized; human IgG1 / kappa constant domains; also called HCSLC2; humanized CXCL16 antibody HC5LC2
With B10, in assay [3], the binding result was “no binding (tested: 1500 ng/mL)”. In addition, in assay [4], the dissociation constant Kd was 2.5 nM, the koff is 6.07e-05 s⁻¹ and the kon is 24300 M⁻¹ s⁻¹. Besides, in assay [5], the “Res@3.7 nM” value is 0.152.

B11: HC4LC1 (antibody, human IgG1, kappa, V domains shown)
VH: B2 VH with Q1E, V11L, Q13K, N76D, T79N, M80T, R89K, A90T, L113T
VL: B1 VL with S9D, I69S, L89V, I91V, L110V, L112I
notes: Humanized; human IgG1 / kappa constant domains; also called humanized CXCL16 antibody HC4LC1
With B11, in assay [4], the Kd was found to be 1.09 nM, the koff came out at 1.9e-05 s⁻¹ and the on-rate (kon) stood at 17400 M⁻¹ s⁻¹. The “Res@3.7 nM” value in assay [5] was determined as 0.113.

B12: HC4LC3 (antibody, human IgG1, kappa, V domains shown)
VH: B2 VH with Q1E, V11L, Q13K, N76D, T79N, M80T, R89K, A90T, L113T
VL: B4 VL
notes: as for B2
With B12, the binding result in assay [6] was “no binding (tested: 100 nM rhCXCL16)”.

B13: HC1LC3 (antibody, human IgG1, kappa, V domains shown)
VH: B2 VH
VL: B4 VL
notes: as for B2
For the molecule B13, the binding result in assay [6] was “no binding (tested: 100 nM rhCXCL16)”.

B14: HC1LC4 (antibody, human IgG1, kappa, V domains shown)
VH: B2 VH
VL: B4 VL with D66S, A86P, F89L, T91I, V110L, I112L
notes: as for B2
For the molecule B14, the binding result in assay [6] was “no binding (tested: 100 nM rhCXCL16)”.

B15: HC4LC4 (antibody, human IgG1, kappa, V domains shown)
VH: B2 VH with Q1E, V11L, Q13K, N76D, T79N, M80T, R89K, A90T, L113T
VL: B4 VL with D66S, A86P, F89L, T91I, V110L, I112L
notes: as for B2
In the case of B15, the binding result in assay [6] was “no binding (tested: 100 nM rhCXCL16)”.

Broadly, the Kd is the constant that tells how readily two partners part at equilibrium. The koff is the first-order rate constant of dissociation. One may read the kon as the rate constant with which the complex forms.

Source of the values: patent US20240327509A1, “HUMAN CXCLI6 ANTIBODIES AND THE USE THEREOF” (CELLUS,INC., priority 2021, published 2024).
